Drawing on a protein production outcome set (Wang et al. 2014), this text covers protein production for 22 sequences.

A short description of this data set: label from the status in PepcDB records.
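Also: failed if final PepcDB status was selected cloned or expressed and not failed if soluble or beyond.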

Regarding “ILFSVVIGSFTPAHPIASETNPKVENAKDAPEIEPFSEQAVEELHRQKKPLFIYFSADWCLTCKVNEKMAIDRDSTRQAFRQKGIVTLHGDWTNGDPEITHFLSKMHRSGIPLYLYYPADGEIQI”, the protein production result was “failed”.

With “IMAKTAKVAVSQIVEHPALDATRQGLLDGLKAKGYEEGKNLEFDYKTAQGNPAIAVQIARQFVGENPDVLVGIATPTAQALVSATKTIPIVFTAVTDPVGAKLVKQLEQPGKNVTGLSDLSPVEQHVELIKEILPNVKSIGVVYNPGEANAVSLMELLKLSAAKHGIKLVEATALKSADVQSATQAIAEKSDVIYALIDNTVASAIEGMIVAANQAKTPVFGAATSYVERGAIASLGFDYYQIGVQTADYVAAILEGKEPGSLDVQVAKGSDLVINKTAAEQLGITIPEAVLARATSTK”, the protein production entry is listed as “not failed”.

In the case of “INVRLKFLNDTEELAVARPEDTVGTLKSKYFPGQESQMKLIYQGRLLQDPARTLSSLNITNNCVIHCHRSPPGAAVSGPSAS”, the protein production result is on record as “not failed”.

Regarding “IPELKDHLRIFRPRKLTLKGYRQHWVVFKETTLSYYKSQDEAPGDPIQQLNLKGCEVVPDVNVSGQKFCIKLLVPSPEGMSEIYLRCQDEQQYARWMAGCRLASKGRTMADSSYTSEVQAILAFLSLQRT”, the protein production result is given as “not failed”.

For “IPLKSIEVPFEGELLPGYAIISEDKAQDTLIVVGGGDTSREDLFYMLGYSGWEHDYNVLMVDLPGQGKNPNQGLHFEVDARAAISAILDWYQAPTEKIAIAGFSGGGYFTAQAVEKDKRIKAWIASTPIYDVAEVFRISFSTALKAPKTILKWGSKLVTSVNKVAEVNLNKYAWQFGQVDFITSVNEVLEQAQIVDYNKIDVPSLFLVGAGEDSELMRQSQVLYDNFKQRGIDVTLRKFSSESGADAHCQVNNFRLMHYQVFEWLNHIFKKKD”, the protein production result is “failed”.

On to “IPVFNITSNRGRLLQQISVGDIWGVGRQWANKLISRGIHTAYDLAMTNPHLLKKCFNAVLMRTAMELQGIACGG”, for which the protein production entry is recorded as “failed”.

On to “IQHATASLIQTNTDQELLVVDVTPSFASLWLVPNINDFHQRHPNIRVKILTGDGAVKNIHGESDLHVRCLPLSTHYEYSQLLCEETLLLIGNTNLPKLSDNQAISHYPFIPQTTRPQLWEQFKQENDLECPITYHSVGFEHFYLACEAVRMEKGLALLPDFMAQFSILRGDIQHIGNLKLHSGYGYYVVIPNFRLTSRKVALFHDWLKDKLTHHT”, for which the protein production entry is listed as “not failed”.

“IQNNEATLRCIVENLPIFFGMRTINFSNWYYINPSFESLTGYTPDEMYEDPLLWQKIHREEYAENLEQARPNLGEWTIFSMEKKDGTQIWAQTVEFLVDDLSDTARVVVFGQDITDIKRAEIETLRSLVKERELNEAKSQFVDIVSHEFRTPLTSIIGF”: the protein production entry was “failed”.

On to “ISLKYTAARLHEKGVLLEIEDLQVNQFKNVIFEISPTEEVGDFEVKAKFMGVQMETFMLHYQDLLQLQYEGVAVMKLFDRAKVNVNLLIFLLNKKFYGK”, for which the protein production result is “not failed”.

Turning to “ITERHLIEESLKESQQRWEFALEGSGDGIWDWGVMEDRLFLSARLQEMFGYARGEMGESMEQASSFILKEDRARVLSTLYRFLKEGEGQYADEFRVNCKEGGYRWIFSRGMVVKRNAQGEAARMIGIFTDI”, the protein production entry is given as “failed”.

“IVAQGEDFVVSGALNLSLIRERTGFQAKATEDYQTLAGLVMSLLDRLPSTGDSLSWQGWNLQVVGVEERRVTRVLLQKQPAASAGK”: the protein production entry is given as “failed”.

Regarding “IVMADWLKIRGTLKSWTKLWCVLKPGVLLIYKTQKNGQWVGTVLLNACEIIERPSKKDGFCFKLFHPLEQSIWAVKGPKGEAVGSITQPLPSSYLIIRATSESDGRCWMDALELALK”, the protein production entry is reported as “not failed”.

As to “IVPDAQDLGKSYGIRPSFIIAQAALDSDFGEKILANKYHNLFGLLAEPGTPSITLNDSSTGKKQEKQFTHYKSWKYSMYDYLAHIKSGATGKKDSYTIMVSVKNPKTLVQKLQDSGFDNDKKYAKKMTEIIDLYDLTRYDK”, the protein production result was “failed”.

Consider “KALGSKEIPKGAENCLEGLIFVITGVLESIERDEAKSLIERYGGKVTGNVSKKTNYLVMGRDSGQSKSDKAAALGTKIIDEDGLLNLIRTMPGKKSKYEIAVETE”, for which the protein production entry is listed as “not failed”.

Turning to “KAPLDEIADDSFWSDETLVKYYVNDLYSEISVDGLQLQENRSDNSVSAQRDKYRASWFKFNYDMVSASDPQDDDVWEDYYVKVRKCNRFFERIGTSTIEESEKSRLTGEVHFLRAMFYFEMVKRYGGVILLDKVLTMEDNWEIPRSSEKECYDFILEDLKKATEMLPASYGSREKGRATKGAAYALKSRVELYDKRYEDVIKSCAEVYKLGYELVDGTTPEKYRSIWWTTNKDNKEIIFDVQYKSPDVYNNMMVCNMVTYINDKYGDRGWGGLGPTQELIDAFEMADGTPATQYSQAPADQVFDINTCGIYEGREPRFYANIVFHGSQIFFNADKGAVTVDRYLMDTPDKGDGSLTGYNVWKWIDYDNYNYPYAGAGSPDFSTNWIILRYAEIYLNDAEARLETGDVEGARKAVNMIRQRVGLPDLTESDPEKLRELIRKERRIEFAFEEQRFYDVRRWKIGPETQTTLHGVRFVSPTEFKVTKTDIRTWNDRLYLTPVPHDEIVRSSVLKQNLGY”, the protein production result is listed as “not failed”.

“KDDDNVETGAFDPSKPVAISDFTPKEGGAYQKLLIYGENFGTDVSKVKVKIGGKDAIVINVKSTYVYCFVPSGAFSGEIEITVGEGENAVTTTASTTFSYEKKMVVGTLCGYRNNRDDQGWRDGPFDGPEGVKCCGFSDNGRLAFDPLNKDHLYICYDGHKAIQLIDLKNRMLSSPLNINTIPTNRIRSIAFNKKIEGYADEAEYMIVAIDYDGKGDESPSVYIIKRNADGTFDDRSDIQLIAAYKQCNGATIHPINGELYFNSYEKGQVFRLDLVDYFKTIKNGGSWDPIVKNNPNTFKQLFTIADPSWEFQIFIHPTGKYAYFGVINNHYFMRSDYDEIKKEFITPYNFVGGYKQSGYRDDVGTEARMNNPCQGVFVKNPDYTGEEEYDFYFVDRLNFCVRKVTPEGIVSTYAGRGASTSLADGNQWGTDDGDLREVARFRDVSGLVYDDVKEMFYVHDQVGHTIRTISMEQEENVAGDENIPEDESTVESNE”: the protein production entry is “not failed”.

In the case of “KELIQNIIEESYTDSQFTLSVLSEKLDLSSGYLSIMFKKNFGIPFQDYLLQKRMEKAKLLLLTTELKNYEIAEQVGFEDVNYFITKFKKYYQITPKQYRE”, the protein production entry was “not failed”.

Take “KFDSDIDEVVYGSRLIGSDPDLVLHGGGNTSVKTTERDHAGRIISVLRVKNSGSNLGTIDSRGFTGIRMDDALAAAKIDKMTDEAMVDYLKKSMVNPSEPSPSVETFLHAFLPYKFVMHSHADAILSITNTDLPSDQIAKILGNVVVLPYIPPGFTLAKEVMNCFKKGIDGIVLRKHGLLTFGDTGKEAYDRHINIVSRAENFIREKTDGK”: the protein production result is listed as “not failed”.

In the case of “KGESYKGKVAVASVVLNRTEKKGFPDTIRGVIYQKNAFEPVANGSINQKPDKESIEAAEEALSSKNRETDAIFFYNPKTASDNWIRSRKIVEKIGRHVFAV”, the protein production entry is on record as “not failed”.

As for “KIADWLELHPAEKRKPWCVGIPRLAELAWQRVVAQRDTFGEAQLAHRIRDYLPEQGQLFVGNSLVVRLIDALSQLPAGYPVYSNRGASGIDGLLSTAAGVQRASAKSTLAIVGDLSALYDLNALALLRQVSAPFVLIVVNNNGGQIFSLLPTPQSKRERFYLMPQNVHFDHAAAMFNLRYHRPENWEELESALAGAWRTPATTVIELVVNDTDGAQTLQQLLAQVSHL”, the protein production entry is reported as “failed”.

On to “KIIHIDCDCFYAALEMRDDPSLRGKALAVGGSPDKRGVVATCSYEARAYGVRSAMAMRTALKLCPDLLVVRPRFDVYRAVSKQIHAIFRDYTDLIEPLSLDEAYLDVSASPHFAGSATRIAQDIRRRVAEELHITVSAGVAPNKFLAKIASDWRKPDGLFVITPEQVDGFVAELPVAKLHGVGKVTAERLARMGIRTCADLRQGSKLSLVREFGSFGERLWGLAHGIDERPVEVDSRRQSVSVECTFDRDLPDLAACLEELPTLLEELDGRLQRLDGSYRPDKPFVKLKFHDFTQTTVEQSGAGRDLESYRQLLGQAFARGNRPVRLIGVGVRLLDLQGAHEQLR”, for which the protein production entry is recorded as “failed”.

Regarding “KKGRFRERYSTRILDALPDMLTVFDHNANIVELASSPTTNHVEGTTSDSIINSNVKDIVPEEAYESVRHNMDKVIHTGKSSTAEHSLMLDGVLHHYENRIFPLDDQYLLCMCRDVS”, the protein production entry is listed as “failed”.
